Data taken from patent publication CN116930475A.

Columns and labels:
[1] = molecular target: 2339-CAR (CD8信号肽-2339(anti-MSLN)-CD8hinge-CD28TM-CD28IC-CD3z), expressed on T cells of MSLN_CAR-T products (batch BZDS202101001 for patient S0106; same sequence for S0304); test: flow cytometry, PE-mesothelin staining of S0106 CAR-T product, no serum
[2] = molecular target: 1444-CAR (CD8信号肽-(anti-MSLN)-CD8 hinge-CD28 TM-CD28IC-CD3z), expressed on the T cells of patient S0105's MSLN_CAR-T product, batch BZDS202012001; test: flow cytometry, PE-mesothelin staining of S0105 CAR-T product, no serum
1444-CAR (CD8信号肽-(anti-MSLN)-CD8 hinge-CD28 TM-CD28IC-CD3z), expressed on the T cells of patient S0105's MSLN_CAR-T product, batch BZDS202012001, sequence (chain, as listed by the source): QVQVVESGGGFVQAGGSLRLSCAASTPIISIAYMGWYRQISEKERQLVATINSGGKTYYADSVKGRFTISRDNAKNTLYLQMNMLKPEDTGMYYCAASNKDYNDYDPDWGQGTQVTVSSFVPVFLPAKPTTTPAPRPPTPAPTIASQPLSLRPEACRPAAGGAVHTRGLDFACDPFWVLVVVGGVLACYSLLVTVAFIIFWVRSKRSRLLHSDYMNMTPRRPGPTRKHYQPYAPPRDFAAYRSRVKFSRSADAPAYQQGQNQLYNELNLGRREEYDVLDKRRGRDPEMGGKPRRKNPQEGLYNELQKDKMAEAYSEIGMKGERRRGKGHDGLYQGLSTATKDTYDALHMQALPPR

[3] = molecular target: 2339-CAR (CD8信号肽-2339(anti-MSLN)-CD8hinge-CD28TM-CD28IC-CD3z), expressed on T cells of MSLN_CAR-T products (batch BZDS202101001 for patient S0106; same sequence for S0304); test: flow cytometry, PE-mesothelin staining of CAR-T product (table for S0304), no serum

2339-CAR (CD8信号肽-2339(anti-MSLN)-CD8hinge-CD28TM-CD28IC-CD3z), expressed on T cells of MSLN_CAR-T products (batch BZDS202101001 for patient S0106; same sequence for S0304), sequence (chain, as listed by the source limits assumed): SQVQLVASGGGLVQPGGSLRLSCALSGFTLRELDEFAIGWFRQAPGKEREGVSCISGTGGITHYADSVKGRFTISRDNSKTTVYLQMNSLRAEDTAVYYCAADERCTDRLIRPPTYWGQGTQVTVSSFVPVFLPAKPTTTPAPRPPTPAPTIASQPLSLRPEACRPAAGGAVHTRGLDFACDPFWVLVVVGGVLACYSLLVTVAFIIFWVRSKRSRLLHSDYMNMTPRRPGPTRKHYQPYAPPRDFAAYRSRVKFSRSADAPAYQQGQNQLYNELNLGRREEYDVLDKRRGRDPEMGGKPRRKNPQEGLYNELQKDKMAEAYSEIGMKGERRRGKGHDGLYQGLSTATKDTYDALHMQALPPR

- 阳性率 (percent of T cells stained by labelled mesothelin) [1]: 96.8%
- 阳性率 (percent of T cells stained by labelled mesothelin) [2]: 32.7%
- 阳性率 (percent of T cells stained by labelled mesothelin) [3]: 96.8%
Substance: PE荧光标记的间皮素 (PE-labelled mesothelin, MSLN) (from UniProt Q13421 296-580) (ligand)
